Measured values as given in patent USRE41461E1, “Purification, composition and specificity of Heparinase I, II, and III from Flavobacterium heparinum” (Massachusetts Institute of Technology, priority 1992, dated 2010).
Where two headings read alike, the source gives them in different places.

Key:
[1] = Stability toward storage, freeze thawing and lyophilization; type: physicochemical
Experimental: […] […] These lyase solutions were then divided into 3 equal aliquots, and one of each was subjected to either freeze thawing, lyophilization, or retained as a control in an ice bath. The activities of heparin lyases I-III were determined in the presence and absence of excipients after: 1) brief storage at 4° C.; 2) freezing at −70° C. and thawing; and 3) −70° C. freezing, lyophilization, and reconstituting with an equal volume of cold water.

[2] = Rice and Lindhardt (1989), cited from earlier work
[3] = Heparin lyase activity assay (change of absorbance at 232 nm), heparin as substrate; type: biochemical, porcine
Experimental: The spectrophotometer was adjusted to the optimum temperature of the particular lyase being assayed. […] A measured quantity of lyase was added, bringing the final volume to 400 μl and the cuvette was gently mixed. The microcuvette was then immediately returned to the spectrophotometer and the change of absorbance at 232 nm was measured at 10 seconds intervals over 3 min. […] The specific activity was then calculated by dividing the micromoles of product produced per minute by the milligrams of protein in the cuvette. […] G., and Linhardt, R. J. (1989) Carbohydr. Res. 190, 219-233. Protein concentration was measured by the Bradford assay, Bradford, M. M. (1976) Anal. Biochem. 72, 248-254, based on a bovine serum albumin standard curve. […] The activities of each lyase (I acting on heparin, II acting on both heparin and heparan sulfate, and III acting on heparan sulfate) were then determined at different pH values. The buffer giving optimum activity for each heparin lyase was selected by testing buffers with buffering capacity near the pH optima calculated in the previous experiments. These buffers were: Tris-HCl, sodium phosphate, HEPES, MOPS, TES, and BTP-CHl. […] The heparin lyase assay solutions were made by diluting enzyme in 50 mM sodium phosphate buffer adjusted to the appropriate pH as previously described. Heparin lyase activity was determined in each buffer. Activity was assayed both immediately after addition to each buffer and following incubation for 24 h at 37° C. The salt concentration for optimum activity was investigated. Sodium chloride, potassium chloride, and sodium and potassium acetate were used to differentiate between ionic strength and specific ion affects. […] The temperature was adjusted in a temperature-regulated spectrophotometer and equilibrated for 10 min before the assay was started. Michaelis-Menten constants were determined using the optimized conditions. The final absorbance value for total depolymerization was divided by 20 to find a value that represented 5% reaction completion. The purified lyase preparations were diluted so that 5% of total depolymerization would be reached only at the end of a 3-min assay. The reaction velocities at specific molar concentrations for each lyase and their substrates were used for kinetic analysis using EZ-FIT hyperbolic curve-fitting program of […]. (1988) Anal. Biochem. 174, 437-447). Substrate solutions were prepared from 50 mg/ml heparin and 40 mg/ml for heparan sulfate stock solutions. […] The amount of purified lyase used was sufficient for complete depolymerization of heparin or heparan sulfate substrates within 30 min. The initial rate of depolymerization of each polysaccharide was measured, the reaction was then continued for 24 h, and the final level of polysaccharide depolymerization was assessed by measuring the final absorbance at 232 nm and expressed as percent activity.

B1: Heparin lyase III: heparin lyase III (heparitinase EC 4.2.2.8) purified to homogeneity from Flavobacterium heparinum (protein, UniProt Q59289 25-659, looked up)
Heparin-sulfate lyase: QSSSITRKDFDHINLEYSGLEKVNKAVAAGNYDDAAKALLAYYREKSKAREPDFSNAEKPADIRQPIDKVTREMADKALVHQFQPHKGYGYFDYGKDINWQMWPVKDNEVRWQLHRVKWWQAMALVYHATGDEKYAREWVYQYSDWARKNPLGLSQDNDKFVWRPLEVSDRVQSLPPTFSLFVNSPAFTPAFLMEFLNSYHQQADYLSTHYAEQGNHRLFEAQRNLFAGVSFPEFKDSPRWRQTGISVLNTEIKKQVYADGMQFELSPIYHVAAIDIFLKAYGSAKRVNLEKEFPQSYVQTVENMIMALISISLPDYNTPMFGDSWITDKNFRMAQFASWARVFPANQAIKYFATDGKQGKAPNFLSKALSNAGFYTFRSGWDKNATVMVLKASPPGEFHAQPDNGTFELFIKGRNFTPDAGVFVYSGDEAIMKLRNWYRQTRIHSTLTLDNQNMVITKARQNKWETGNNLDVLTYTNPSYPNLDHQRSVLFINKKYFLVIDRAIGEATGNLGVHWQLKEDSNPVFDKTKNRVYTTYRDGNNLMIQSLNADRTSLNEEEGKVSYVYNKELKRPAFVFEKPKKNAGTQNFVSIVYPYDGQKAPEISIRENKGNDFEKGKLNLTLTINGKQQLVLVP
activity retained ([1]; absence of excipient, stored at 4° C.): retains most of its activity
retention of activity ([1]; addition of 5% lactose): destabilizes
activity lost ([1]; on freeze-thawing or freeze-drying): 70-80%
increase of recovered activity ([1]; presence of BSA): 20-25%
Vmax (reported) [2]: 0.00357 µmol/min
Km ([2]; read-out: apparent Km (reported)): 5.7 µM

B2: Heparin lyase II: heparin lyase II (heparinase II, no EC number) purified to homogeneity from Flavobacterium heparinum (protein, UniProt C6XZB6 26-772, looked up)
Heparin and heparin-sulfate …: QTKADVVWKDVDGVSMPIPPKTHPRLYLREQQVPDLKNRMNDPKLKKVWADMIKMQEDWKPADIPEVKDFRFYFNQKGLTVRVELMALNYLMTKDPKVGREAITSIIDTLETATFKPAGDISRGIGLFMVTGAIVYDWCYDQLKPEEKTRFVKAFVRLAKMLECGYPPVKDKSIVGHASEWMIMRDLLSVGIAIYDEFPEMYNLAAGRFFKEHLVARNWFYPSHNYHQGMSYLNVRFTNDLFALWILDRMGAGNVFNPGQQFILYDAIYKRRPDGQILAGGDVDYSRKKPKYYTMPALLAGSYYKDEYLNYEFLKDPNVEPHCKLFEFLWRDTQLGSRKPDDLPLSRYSGSPFGWMIARTGWGPESVIAEMKVNEYSFLNHQHQDAGAFQIYYKGPLAIDAGSYTGSSGGYNSPHNKNFFKRTIAHNSLLIYDPKETFSSSGYGGSDHTDFAANDGGQRLPGKGWIAPRDLKEMLAGDFRTGKILAQGFGPDNQTPDYTYLKGDITAAYSAKVKEVKRSFLFLNLKDAKVPAAMIVFDKVVASNPDFKKFWLLHSIEQPEIKGNQITIKRTKNGDSGMLVNTALLPDAANSNITSIGGKGKDFWVFGTNYTNDPKPGTDEALERGEWRVEITPKKAAAEDYYLNVIQIADNTQQKLHEVKRIDGDKVVGVQLADRIVTFSKTSETVDRPFGFSVVGKGTFKFVMTDLLPGTWQVLKDGKILYPALSAKGDDGALYFEGTEGTYRFLR
activity retained ([1]; under all storage conditions): greater than 75%
Unit/mg (specific activity) ([3]; final GPC-HPLC purification step, acting on heparin): 19 Unit/mg
average number of sites acted at in the heparin polymer ([3]; final level of depolymerization, 24 h): 14 sites
initial activity in six buffers (Tris-HCl, sodium phosphate, HEPES, MOPS, TES, BTP-HCl) ([3]; heparin, 50 mM buffer at optimum pH): remarkably similar in all six buffers
temperature for maximum activity ([3]; heparin, 50 mM sodium phosphate at optimum pH, 15-55° C.): 40 °C
Km ([3]; heparin, I: 30° C., pH 7.15, 100 mM sodium chloride, II: 35° C., pH 7.3, value ± standard error, read-out: Km(app)): 57.7 ± 6.56 µM
optimum temperature (summary) ([3]; heparin, activity greater at higher temperatures but stability reduced): 35 °C
Vmax ([3]; heparin, optimized conditions, value ± standard error): 16.7 ± 0.555 μmol/min mg protein
pH optimum for activity ([3]; on heparin): 7.3
specific activity ([3]; purified lyase, toward heparin): 19 units/mg
Km (Michelis-Menton constant, summary) ([3]; with heparin): 0,129 mg/ml
V(max) (summary) ([3]; with heparin): 15.04
Km ([3]; with heparin, read-out: Km (Michelis-Menton constant, summary)): 9.23 µM
